# Results reported in paper PMC8764033, “Single-molecule analysis of specificity and multivalency in binding of short linear substrate motifs to the APC/C” (Nature Communications, 2022).
# Where “and” joins values, the source holds several entries; their conditions need not be identical. Equal entries are not always repeated.
# T1: Cdh1^WD40 (Saccharomyces cerevisiae, UniProt P53197)
# T1 construct: the WD40 domains of yeast Cdh1 (aa 241–550; pNH144); made in house; host or cells: Sf9 insect cells (baculovirus)
# T1 sequence (P53197 241-550): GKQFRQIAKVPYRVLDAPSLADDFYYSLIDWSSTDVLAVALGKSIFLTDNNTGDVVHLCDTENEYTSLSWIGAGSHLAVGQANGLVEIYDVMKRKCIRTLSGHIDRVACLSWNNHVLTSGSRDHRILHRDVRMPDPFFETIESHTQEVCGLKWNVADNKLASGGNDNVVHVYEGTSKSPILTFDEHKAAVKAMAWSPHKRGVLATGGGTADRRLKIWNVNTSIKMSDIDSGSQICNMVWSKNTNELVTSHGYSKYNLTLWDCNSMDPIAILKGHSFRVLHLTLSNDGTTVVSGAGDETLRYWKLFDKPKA
# B1: Hsl1^Halo KEN & D: Hsl1 fragment (amino acids 667–872) with C-terminal HaloTag, JF549-labeled (protein)
# chain: QNSASKRSLYSLQSISKRSLNLNDLLVFDDPLPSKKPASENVNKSEPHSLESDSDFEILCDQILFGNALDRILEEEEDNEKERDTQRQRQNDTKSSADTFTISGVSTNKENEGPEYPTKIEKNQFNMSYKPSENMSGLSSFPIFEKENTLSSSYLEEQKPKRAALSDITNSFNKMNKQEGMRIEKKIQREQLQKKNDRPSPLKPIQ
# modifications: JF549 or JF646 dye covalently bound to the HaloTag; left off: HaloTag, C-terminal, kept | TAP, C-terminal, cleaved
# notes: Hsl1 fragment (amino acids 667–872) with C-terminal HaloTag, JF549-labeled
# Columns and labels:
# APC/C^Cdh1 = assay: Ensemble binding of radiolabeled Hsl1 fragments to APC/C^Cdh1 on magnetic beads; design: species or system yeast
# Description: Supplementary Fig. 2: APC/C activity with tagged substrates a, Methods for analysis of APC/C activity and substrate binding. b, APC/C ubiquitylation assay with ra d io lab e le d f u ll-len g th yS e cu rin , co mpa rin g wild-type APC/CCdh1 an d AP C/ CCdh1 with a GFP ta g o n A p c1 . c, Comparison of activities with APC/CCdh1, using either wild-type Cdh1 or Cdh1 with the N-terminal 2XStrep-Tag II. d, Comparison of activities with APC/CCdh1 and the Hsl1 fragment (667-872) with and without the C-terminal Halo tag. e, Binding of radiolabeled Hsl1 fragments to yeast APC/CCdh1 immobilized on magnetic beads. First lane (Inp, input) indicates the amount of labeled protein added to the beads prior to washing, second lane (+) indicates amount bound, and third lane (-) indicates background binding in absence of APC/CCdh1. f, Ubiquitylation of Halo-tagged Hsl1 fragment with APC/CCdh1 an d A P C/ CCdc20. Experiments we re pe rfo rme d o n ce (b, c) or twice ( d-f). Source data are provided as a Source Dat a file.
# (1 picture or pasted object on this page, not shown here)
# Cdh1^WD40 = target: T1, Cdh1^WD40; assay: SMOR assay (single-molecule off-rate, TIRF), yeast Cdh1^WD40; format: binding; conditions: for mean dwell time: representative of two independent experiments, ± SE, ligand ≤1 nM, buffer C + BSA
# Method: Activators were cloned into the pFastBac HT A vector, with an N-terminal 2xStrep-Tag II. For some experiments, we constructed vectors for expression of the WD40 domains of yeast Cdh1 (aa 241–550; pNH144), human Cdh1 (aa 165–484; pNH164), or human Cdc20 (aa 162–484; pNH188). For SMOR, a C-terminal GFP tag was added. Bacmid plasmids are listed in Supplementary Table 3. Plasmids were transformed into DH10Bac cells, and purified Bacmid was used to transfect Sf9 cells to generate P1 baculovirus, which was used to generate P2 virus. SF9 cells were infected with the P2 virus for 48 h. Flash-frozen pellets were lysed by sonication or high-pressure homogenization in lysis buffer B (50 mM Tris-HCl pH 8, 150 mM KCl, 0.5 mM EDTA, 1 mM DTT, 10% Glycerol, EDTA-free protease inhibitor tablet, 1 µg ml^−1 pepstatin A). After the lysate was applied to the StrepTrap column, the column was washed with wash buffer B (lysis buffer B lacking protease inhibitors) and eluted in the same buffer containing 2.5 mM desthiobiotin.
# For all SMOR experiments, 24 × 50 mm high precision glass coverslips (Bioscience Tools) and drilled microscope slides were passivated with a combination of PEG and PEG-biotin (coverslips) or PEG only (slides) following a previously published protocol for SiMPull[31]. Reaction chambers (~20 µl) were created using double-sided tape and epoxy. Protein was immobilized on the surface with 0.2 mg ml^−1 NeutrAvidin in buffer C (20 mM HEPES pH 7.5, 150 mM KCl, 10% glycerol, 0.05% Tween-20, 1 mM DTT). Excess NeutrAvidin was washed away and incubated with either biotin-conjugated mouse monoclonal anti-Strep-Tag II antibody (LSBio, Cat. No. LS-C203632-100) or biotin-conjugated rabbit polyclonal anti-GFP antibody (Rockland, Cat. No. 600-406-215) diluted in buffer C + BSA (0.1 mg ml^−1; Molecular Biology Grade Bovine Serum Albumin). Activator WD40 and activated APC/C (typically 50 µl containing about 65 ng APC/C, of which only a small fraction is immobilized on the glass) were immobilized using anti-Strep-Tag II, while APC/C alone was immobilized with anti-GFP. SMOR results were similar when performed in the buffer (wash buffer B) used in polarization anisotropy.
# To capture dynamic protein–protein interactions, dye-labeled substrate diluted in buffer C + BSA was added to the chamber containing immobilized proteins. Interactions were imaged by TIRF microscopy as described below. For optimal signal-to-noise ratio, peptide concentration was no greater than 1 nM. Protein substrates included Hsl1 aa 667–872 and a C-terminal HaloTag followed by a TAP tag, and were produced by translation in rabbit reticulocyte lysates using TnT Quick Coupled Transcription/Translation System (Promega) (see Supplementary Table 5 for plasmids). Protein was purified with magnetic IgG beads and labeled on the bead with JF549 or JF646 dye so that unbound dye could be washed away. Purified dye-labeled protein was then cleaved from the beads using TEV protease. Before adding substrate to the reaction chamber, oxygen scavenging reagents were added (10 nM protocatechuate-3,4-dioxygenase, 2.5 mM protocatechuic acid, and 1 mM Trolox)[41]. A detailed description of the SMOR analysis pipeline is found in Supplementary Note 1.
# Microscopy was performed with a Nikon Eclipse TE2000-E with Perfect Focus with a 100 × 1.49na oil, Apo TIRF DIC N2, 0.13-0.2, WD0.12 objective. Movies were recorded using the Andor iXon DU-897E-CSO. […]
# APC/C = conditions: APC/C^Cdc20 vs APC/C^Cdh1; cited from earlier work
# Description: We find that the yeast securin ...
molecule,measurement,setting,value
B1,binding to APC/C (in words),APC/C^Cdh1,HaloTag does not affect ubiquitylation or binding
same,Dwell Time,"Cdh1^WD40; Supplementary Table 1, replicate 1 (movie listed first)",73.520 ± 3.075 s
same,Dwell Time,"Cdh1^WD40; Supplementary Table 1, replicate 2 (movie listed second)",56.447 ± 2.072 s
same,mean dwell time,Cdh1^WD40,56.4 ± 2 s and 56.4 s
same,mean dwell time,Cdh1^WD40; listed as Hsl1 fragment,56.4 ± 2 s
same,fold increase in dwell time vs degron peptide alone,Cdh1^WD40; vs D (and KEN) box peptide,100 fold
same,processivity of ubiquitylation (in words),APC/C,more processively modified by APC/C^Cdh1
